The text below walks through data of the supplement of paper PMC9170038.

The subject of the data set is MS2 coat protein. In words: apparent KD of MS2 coat protein; higher = weaker reporter binding. The note with it: Eterna round: R107. Put shortly:
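The designed RNA switches were transcribed on-chip from Illumina sequencing clusters. In 100 mM Tris-HCl pH 7.5, 80 mM KCl and 4 mM MgCl2, without or with constant ligand, they were titrated with SNAP-549-labelled MS2 coat protein from 0.7 or 1.5 nM to 3 µM in twofold steps. Apparent KD is the per-design median of normalised cluster binding-curve fits.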

The mark [1] stands for this setting: input ligand: theophylline 20 uM.
[2] abbreviates: input ligand: theophylline 2 mM.
Where [3] appears, read: input ligand: tryptophan 2.4 mM.

Take “GAACAUAUGGAUACUAUUAUGAGCACAGAAGGAGCGAGCGGAAGCUCAGGUAGGUCGCUGGGUAACAUGAGGAUCACCCAUGUUG [XArg-A sub1]”: the “apparent KD of MS2 coat protein” value reads like this: (input ligand: arginine 13.2 mM) 18.7 nM; (input ligand: none) 19.1 nM; under setting [1], 24.7 nM; under setting [2], 25.6 nM; under setting [3], 20.8 nM.
Turning to “GAACAUGAGGAUCACCCAUGUAAAACAGAUACCAGUGAUAUAAUACACCCUUGGCAGCUGAAGCUGAAUAAUAAUUCCCUCAAGC [Same State Theophylline A GF1]”, the “apparent KD of MS2 coat protein” value (input ligand: arginine 13.2 mM) was 17 nM, the “apparent KD of MS2 coat protein” value under setting [1] is 20 nM and the “apparent KD of MS2 coat protein” value under setting [3] turned out to be 15 nM.
“GACAGAAACUGAAGGAGCGAGGUAAAACGGGAUGAGCAAACAUGAGGAUCACCCAUGUGGCCUCAGGUAGGUCGCAGAAAGAAAC [Exclusion Arginine B GF24]”: the “apparent KD of MS2 coat protein” value reads like this: (input ligand: arginine 13.2 mM) 180 nM; (input ligand: none) 130 nM; under setting [1], 183 nM; under setting [2], 123 nM; under setting [3], 135 nM.
As to “GACGAGUAGACGGCCGCCACUAUGCUGCGCAGCCCUAGAAACGCACAUGAGGAUCACCCAUGUCUUAGGACCGGGUCGAACUUAA [theeternabot_sameState_MS2_Trp_B_48]”, the “apparent KD of MS2 coat protein” value (input ligand: arginine 13.2 mM) was determined as 47.7 nM, the “apparent KD of MS2 coat protein” value under setting [1] is 107 nM and the “apparent KD of MS2 coat protein” value under setting [2] was determined as 96.2 nM.
With “GACGGUACGUCGGCAAAGCCGAUGUGCCAGCGAGGACCGGUACGGCCGCCACUCGUACAUGAGGAUCACCCAUGUCCGGUCCGUC [Omei Trp SS A C v3]”, the “apparent KD of MS2 coat protein” value runs as follows: (input ligand: arginine 13.2 mM) 51.7 nM; (input ligand: none) 122 nM; under setting [1], 108 nM; under setting [2], 167 nM; under setting [3], 129 nM.
As for “GAGUAGAGGACGGCCGCCACUGAACAUGAGGAUCACCCAUGUCGUGAUCCGUUACCUAGGGUAGAUAGGACCGGGUCAUGUACUC [Exclusion Tryptophan B GF 18]”, the “apparent KD of MS2 coat protein” value is, setting by setting: (input ligand: arginine 13.2 mM) 37.2 nM; under setting [1], 68.8 nM; under setting [2], 56.7 nM.
As to “GAGUAGUAGACGGCCGCCACUAAACAUGAGGAUCACCCAUGUAGUGAUCCGUUACCUAGCGUAGAUAGGACCGGGUCAGAUAGUA [Exclusion Tryptophan B GF 14]”, the “apparent KD of MS2 coat protein” value by setting is: (input ligand: arginine 13.2 mM) 21.6 nM; under setting [1], 31.7 nM; under setting [2], 25.9 nM.
As to “GAGUUGUGCUCAGGCCCGACUCGCUGAGAAGGAGCGCACUAAGGUGCAGGUAGGUCGCUCAGGAAUACAUGAGGAUCACCCAUGU [Erlaatti]”, the “apparent KD of MS2 coat protein” value was 21.7 nM (input ligand: arginine 13.2 mM); 22.9 nM (input ligand: none); 29.9 nM under setting [1]; 28.5 nM under setting [2]; 25.2 nM under setting [3].
For “GAUAACAUGAGGAUCACCCAUGUGGCGUCGCGAGGACCGGUACGGCCGCCACUCGGCAGUUCAACUCGAAUAUAGUGAUCGAAGU [theeternabot_sameState_MS2_Trp_A_16]”, the “apparent KD of MS2 coat protein” value amounted to 47.6 nM (input ligand: arginine 13.2 mM), 182 nM under setting [1] and 223 nM under setting [2].
Consider “GAUGAUAUUGCAGAUACCAGACACAUGAGGAUCACCCAUGUCGCUGGGUCGCUGGGUCGUGUCCCUUGGCAGCUGCGAUAUCAUC [Tibet]”, for which the “apparent KD of MS2 coat protein” value by setting is: (input ligand: arginine 13.2 mM) 16.3 nM; (input ligand: none) 20.3 nM; under setting [1], 47.8 nM; under setting [2], 339 nM; under setting [3], 21.4 nM.
In the case of “GCACCAGGUACGGAUACCAGCUAUAGGCCCAAUGGGCGACAUGAGGAUCACCCAUGUGAUGGCCCUUGGCAGCUGUACCUGGUGC [SSThB NP+V+V2 #9]”, the “apparent KD of MS2 coat protein” value is, setting by setting: (input ligand: arginine 13.2 mM) 148 nM; under setting [1], 193 nM; under setting [3], 218 nM.
Take “GCACGACAUGAGGAUCACCCAUGUGCAGAUACCAGUAAUGUAUGUUACCCUUGGCAGCUGAGUAGGUCUGGAGGGCUAUAGGUUU [Same State Theophylline A GF13]”: the “apparent KD of MS2 coat protein” value is 15.4 nM (input ligand: arginine 13.2 mM); 13.9 nM (input ligand: none); 17.2 nM under setting [1]; 15.6 nM under setting [2]; 14.1 nM under setting [3].
Regarding “GCAGUGGGUUAUAAGUAAUAGAAUUCUGAAGGAGCGUGAUGAAACACAGGUAGGUCGCAGGAACAUGAGGAUCACCCAUGUACGG [Same State Arginine A GF20]”, the “apparent KD of MS2 coat protein” value runs as follows: (input ligand: arginine 13.2 mM) 61.4 nM; (input ligand: none) 58.7 nM; under setting [1], 51.6 nM; under setting [2], 37.6 nM; under setting [3], 50.3 nM.
For the sequence “GCAUCCUAGUCGGCCGCCACUGCGAAUAGGUCCUGAGUGAUCUAACAUGAGGAUCACCCAUGUAGCAGGACCGGGACUAGGAUGC [(Trp1)-(TM)''-(TM)'-(Ms2)-(Trp2)_Design5]”, the “apparent KD of MS2 coat protein” value turned out to be 12.8 nM (input ligand: arginine 13.2 mM); 16.5 nM (input ligand: none); 22.3 nM under setting [1]; 23 nM under setting [2]; 17.3 nM under setting [3].
As for “GCAUCCUAGUCGGCCGCCACUGCGGAUCCGGUUCUAGAUCCUUAACAUGAGGAUCACCCAUGUAGCAGGACCGGGACUAGGAUGC [(Trp1)-(TM)''-(TM)'-(Ms2)-(Trp2)_Design2]”, the “apparent KD of MS2 coat protein” value (input ligand: arginine 13.2 mM) is 91 nM; the “apparent KD of MS2 coat protein” value (input ligand: none) was found to be 237 nM; the “apparent KD of MS2 coat protein” value under setting [1] amounted to 251 nM; the “apparent KD of MS2 coat protein” value under setting [2] is 324 nM; the “apparent KD of MS2 coat protein” value under setting [3] came out at 295 nM.
On the same counts, the results for “GCCAUCGGCGGAAGCCGAUGGGAUACAGAAGGAGCGUAGGAAACUACAGGUAGGUCGCUGGACAUGAGGAUCACCCAUGUGAUAG [SSAA #11]” are 19.6 nM, 24 nM, 31.9 nM, 31.6 nM and 22.7 nM.
Turning to “GCCAUCGGCGGAAGCCGAUGGUAUACAGAAGGAGCGUAGGAAACUACAGGUAGGUCGCUGGACAUGAGGAUCACCCAUGUAAUAG [#27 Same State - Arginine A]”, the “apparent KD of MS2 coat protein” value is 22.2 nM (input ligand: arginine 13.2 mM); 15.2 nM (input ligand: none); 26.7 nM under setting [1]; 17.5 nM under setting [2]; 21.8 nM under setting [3].
“GCCGGUACGUCGGCAAAGCCGAUGUGCCAGCGAGGACCGGUACGGCCGCCACUCGUACAUGAGGAUCACCCAUGUCCGGUCCGGC [Omei Trp SS A C v1]”: the “apparent KD of MS2 coat protein” value (input ligand: arginine 13.2 mM) came to 26.7 nM, the “apparent KD of MS2 coat protein” value under setting [1] is 62.5 nM and the “apparent KD of MS2 coat protein” value under setting [2] came out at 71.8 nM.
